Data as given in publication PMC11965522.

Legend:
Mre11;Rad50 S115E/S116E = Mre11;Rad50 S115E/S116E (Pyrococcus furiosus;Pyrococcus furiosus, UniProt Q8U1N9;P58301 1-426;1-882, |S115E;S116E); test: fluorescence polarization
Mre11;Rad50 R833E/R834E = Mre11;Rad50 R833E/R834E (Pyrococcus furiosus;Pyrococcus furiosus, UniProt Q8U1N9;P58301 1-426;1-882, |R833E;R834E); test: fluorescence polarization
[1] = molecular target: Mre11 K144E;Rad50 full-length (Pyrococcus furiosus;Pyrococcus furiosus, UniProt Q8U1N9;P58301 1-426;1-882, K144E|); test: fluorescence polarization
Mre11 K144E;Rad50 full-length, sequence (P58301 whole entry, stated change not applied, one chain of several): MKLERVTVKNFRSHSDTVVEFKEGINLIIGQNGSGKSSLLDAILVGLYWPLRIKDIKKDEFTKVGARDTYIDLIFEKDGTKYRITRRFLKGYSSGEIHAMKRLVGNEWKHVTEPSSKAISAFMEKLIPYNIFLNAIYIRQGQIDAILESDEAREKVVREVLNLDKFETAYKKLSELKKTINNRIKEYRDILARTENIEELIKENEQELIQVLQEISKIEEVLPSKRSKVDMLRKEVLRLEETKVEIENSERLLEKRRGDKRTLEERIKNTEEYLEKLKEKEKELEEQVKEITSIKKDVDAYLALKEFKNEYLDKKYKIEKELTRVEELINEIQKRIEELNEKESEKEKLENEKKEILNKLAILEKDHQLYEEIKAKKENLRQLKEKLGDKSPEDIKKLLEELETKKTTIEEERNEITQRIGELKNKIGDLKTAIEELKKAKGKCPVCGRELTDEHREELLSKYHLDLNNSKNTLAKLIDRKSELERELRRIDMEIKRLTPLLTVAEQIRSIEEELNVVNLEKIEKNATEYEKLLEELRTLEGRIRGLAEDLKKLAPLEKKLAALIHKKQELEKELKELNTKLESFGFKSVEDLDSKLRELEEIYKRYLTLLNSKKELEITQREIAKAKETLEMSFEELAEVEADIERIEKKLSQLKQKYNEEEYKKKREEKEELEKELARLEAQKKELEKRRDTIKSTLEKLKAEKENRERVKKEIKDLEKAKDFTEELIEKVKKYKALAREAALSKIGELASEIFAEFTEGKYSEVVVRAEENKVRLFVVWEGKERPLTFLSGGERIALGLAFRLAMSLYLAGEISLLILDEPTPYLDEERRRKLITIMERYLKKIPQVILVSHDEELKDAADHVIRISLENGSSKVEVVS

Mre11;Rad50 R868E = Mre11;Rad50 R868E (Pyrococcus furiosus;Pyrococcus furiosus, UniProt Q8U1N9;P58301 1-426;1-882, |R868E); test: fluorescence polarization
Mre11;Rad50 R868E, sequence (P58301 whole entry R868E, one chain of several): as the sequence (P58301 whole entry, stated change not applied, one chain of several) above, with R868E counted along it

[2] = molecular target: Mre11 K111E;Rad50 full-length (Pyrococcus furiosus;Pyrococcus furiosus, UniProt Q8U1N9;P58301 1-426;1-882, K111E|); test: fluorescence polarization
Mre11 K111E;Rad50 full-length, sequence (P58301 whole entry, stated change not applied, one chain of several): as the sequence (P58301 whole entry, stated change not applied, one chain of several) above

[3] = molecular target: Mre11 K365E;Rad50 full-length (Pyrococcus furiosus;Pyrococcus furiosus, UniProt Q8U1N9;P58301 1-426;1-882, K365E|); test: fluorescence polarization
Mre11 K365E;Rad50 full-length, sequence (P58301 whole entry K365E, one chain of several): as the sequence (P58301 whole entry, stated change not applied, one chain of several) above, with K365E counted along it

Mre11;Rad50 full-length = Mre11;Rad50 full-length (Pyrococcus furiosus;Pyrococcus furiosus, UniProt Q8U1N9;P58301 1-426;1-882, |); test: fluorescence polarization
Mre11;Rad50 full-length, sequence (P58301 whole entry, one chain of several): as the sequence (P58301 whole entry, stated change not applied, one chain of several) above

[4] = molecular target: Mre11 R160E;Rad50 full-length (Pyrococcus furiosus;Pyrococcus furiosus, UniProt Q8U1N9;P58301 1-426;1-882, R160E|); test: fluorescence polarization
Mre11 R160E;Rad50 full-length, sequence (P58301 whole entry, stated change not applied, one chain of several): as above

Mre11;Rad50 K172E = Mre11;Rad50 K172E (Pyrococcus furiosus;Pyrococcus furiosus, UniProt Q8U1N9;P58301 1-426;1-882, |K172E); test: fluorescence polarization
Mre11;Rad50 K172E, sequence (P58301 whole entry K172E, one chain of several): as the sequence (P58301 whole entry, stated change not applied, one chain of several) above, with K172E counted along it

Mre11;Rad50NBD [5] = molecular target: T1, Mre11;Rad50NBD (Pyrococcus furiosus;Pyrococcus furiosus, UniProt Q8U1N9;P58301;P58301 1-426;1-195;709-882, |); test: NMR CSP
T1 sequence (P58301 1-195, chain 1 of 2): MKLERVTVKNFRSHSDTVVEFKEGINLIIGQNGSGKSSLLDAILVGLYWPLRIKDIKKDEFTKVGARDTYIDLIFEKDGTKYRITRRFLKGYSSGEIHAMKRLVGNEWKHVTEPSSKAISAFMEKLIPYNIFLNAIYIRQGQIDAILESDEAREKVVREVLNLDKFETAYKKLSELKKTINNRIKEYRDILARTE
T1 sequence (P58301 709-882, chain 2 of 2): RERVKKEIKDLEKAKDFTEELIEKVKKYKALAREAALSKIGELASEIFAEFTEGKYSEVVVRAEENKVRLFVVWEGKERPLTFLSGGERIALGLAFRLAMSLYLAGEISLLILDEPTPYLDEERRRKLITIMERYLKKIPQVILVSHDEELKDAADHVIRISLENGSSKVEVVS

Mre11;Rad50NBD [6] = molecular target: T1, Mre11;Rad50NBD; test: NMR PRE
Mre11;Rad50NBD [7] = molecular target: T1, Mre11;Rad50NBD; test: NMR CSP titration

Mre11;Rad50 R833E/R834E, sequence (P58301 whole entry R833E/R834E, one chain of several): as the sequence (P58301 whole entry, stated change not applied, one chain of several) above, with R833E, R834E counted along it
Mre11;Rad50 S115E/S116E, sequence (P58301 whole entry S115E/S116E, one chain of several): as the sequence (P58301 whole entry, stated change not applied, one chain of several) above, with S115E, S116E counted along it

B1: 40-mer dsDNA (dsDNA)
DNA 1: GTGTTCGGACTCTGCCTCAAGACGGTAGTCAACGTGCTTG
DNA 2: CAAGCACGTTGACTACCGTCTTGAGGCAGAGTCCGAACAC
Kd (Mre11;Rad50 S115E/S116E): 580 ± 60 nM
Kd (Mre11;Rad50 R833E/R834E): 1080 ± 130 nM
Kd [1]: 2120 ± 420 nM
Kd (Mre11;Rad50 R868E): 750 ± 70 nM
Kd [2]: 1070 ± 110 nM
Kd [3]: 710 ± 50 nM
Kd (Mre11;Rad50 full-length): 590 ± 50 nM
Kd [4]: 960 ± 60 nM
Kd (Mre11;Rad50 K172E): 580 ± 30 nM

B2: 50-bp dsDNA (dsDNA)
DNA 1: CTGCAGGGTTTTTGTTCCAGTCTGTAGCACTGTGTAAGACAGGCCAGATG
DNA 2: CATCTGGCCTGTCTTACACAGTGCTACAGACTGGAACAAAAACCCTGCAG
binding result (Mre11;Rad50NBD [5]): binds

B3: hairpin 2S (structured_DNA)
DNA: CACGCACGTAGAAGCTTTTGCTTCTACGTGCGTGAC
modifications: phosphorothioate at nt 2
binding result (Mre11;Rad50NBD [6]): binds

B4: hairpin 6S (structured_DNA)
DNA: B3 DNA
modifications: phosphorothioate at nt 6
binding result (Mre11;Rad50NBD [6]): binds

B5: hairpin 17S (structured_DNA)
DNA: B3 DNA
modifications: phosphorothioate at nt 17
binding result (Mre11;Rad50NBD [6]): binds

B6: 15-bp hairpin DNA (structured_DNA)
DNA: B3 DNA
Kd (Mre11;Rad50NBD [7]): ~5400 nM

B7: hairpin 30S (structured_DNA)
DNA: B3 DNA
modifications: phosphorothioate at nt 30
binding result (Mre11;Rad50NBD [6]): binds

B8: hairpin 36S (structured_DNA)
DNA: B3 DNA
modifications: phosphorothioate at nt 36
binding result (Mre11;Rad50NBD [6]): binds

B9: hairpin 24S (structured_DNA)
DNA: B3 DNA
modifications: phosphorothioate at nt 24
binding result (Mre11;Rad50NBD [6]): binds
